Source: patent US20220275101A1, “Use of Approved Anti-CD38 Antibody Drug Product to Treat Light Chain Amyloidosis” (Janssen Biotech, Inc., priority 2021, published 2022)
Marks after values point to notes of the source that are not given here. Values belong to the molecule of their own block, whether it stands above or below them.

Assays:
[1] = Daratumumab pharmacokinetics in patients with multiple myeloma; format: in vivo, human
[2] = COLUMBA monotherapy, safety (relapsed/refractory multiple myeloma)
[3] = system: relapsed or refractory multiple myeloma; test: COLUMBA monotherapy, efficacy; format: in vivo, human
Excerpt: The major efficacy outcome measures were ORR by the IMWG response criteria and maximum Ctrough at pre-dose Cycle 3 Day 1 [see Clinical Pharmacology (12.3)]. Randomization was stratified by body weight, myeloma type, and number of prior lines of therapy.

[4] = Daratumumab pharmacokinetics after DARZALEX FASPRO, population not specified or pooled; format: in vivo, human; conditions: DARZALEX FASPRO as monotherapy or combination therapy
[5] = Daratumumab pharmacokinetics in patients with light chain (AL) amyloidosis; format: in vivo, human
[6] = biological target: T1, CD38 on red blood cells (RBCs) (Homo sapiens, UniProt P28907); test: Interference with Indirect Antiglobulin Test (Indirect Coombs test)
T1 construct: endogenous in cells; host or cells: red blood cells (reagent RBCs used in blood-bank compatibility testing)
Excerpt: Daratumumab binds to CD38 on red blood cells (RBCs) and results in a positive Indirect Antiglobulin Test (Indirect Coombs test). Daratumumab-mediated positive indirect antiglobulin test may persist for up to 6 months after the last daratumumab administration. Daratumumab bound to RBCs masks detection of antibodies to minor antigens in the patient's serum [see References (15)]. The determination of a patient's ABO and Rh blood type are not impacted [see Drug Interactions (7.1)].
Daratumumab binds to CD38 on RBCs and interferes with compatibility testing, including antibody screening and cross matching. Daratumumab interference mitigation methods include treating reagent RBCs with dithiothreitol (DTT) to disrupt daratumumab binding [see References (15)] or genotyping. Since the Kell blood group system is also sensitive to DTT treatment, supply K-negative units after ruling out or identifying alloantibodies using DTT-treated RBCs.

[7] = Hyaluronidase effect on permeability of the subcutaneous tissue
Excerpt: Hyaluronan is a polysaccharide found in the extracellular matrix of the subcutaneous tissue. It is depolymerized by the naturally occurring enzyme hyaluronidase. Unlike the stable structural components of the interstitial matrix, hyaluronan has a half-life of approximately 0.5 days. Hyaluronidase increases permeability of the subcutaneous tissue by depolymerizing hyaluronan. In the doses administered, hyaluronidase in DARZALEX FASPRO acts locally. The effects of hyaluronidase are reversible and permeability of the subcutaneous tissue is restored within 24 to 48 hours.

[8] = Hyaluronidase subcutaneous exposure and toxicity in monkeys; format: in vivo
Experimental: No carcinogenicity, genotoxicity, or fertility studies were conducted for recombinant human hyaluronidase. […] As hyaluronidase is a recombinant form of the endogenous human hyaluronidase, no carcinogenicity, mutagenesis, or effects on fertility are expected.

[9] = Hyaluronidase developmental toxicity in mice; format: in vivo
Excerpt: There were no effects on pre- and post-natal development through sexual maturity in offspring of mice treated daily from implantation through lactation with 990,000 U/kg hyaluronidase subcutaneously, which is 134 times higher than the human doses.

[10] = monkeys, 22,000 U/kg/week subcutaneously for 39 weeks

Molecule: Intravenous Daratumumab: daratumumab 16 mg/kg administered intravenously, comparator arm in COLUMBA
Observed mean ± SD max Ctrough after 8th dose ([1]; patients with multiple myeloma): 522 ± 226^a, b μg/mL
Back pain, All Grades ([2]; monotherapy): 12%
Back pain, Grade ≥ 3 ([2]; monotherapy): 3^# %
Chills, All Grades ([2]; monotherapy): 12%
Chills, Grade ≥ 3 ([2]; monotherapy): 1^# %
Cough, All Grades ([2]; monotherapy): 14%
Cough, Grade ≥ 3 ([2]; monotherapy): 0^ %
Diarrhea, All Grades ([2]; monotherapy): 11%
Diarrhea, Grade ≥ 3 ([2]; monotherapy): 0.4^# %
Dyspnea, All Grades ([2]; monotherapy): 11%
Dyspnea, Grade ≥ 3 ([2]; monotherapy): 1^# %
Fatigue, All Grades ([2]; monotherapy): 16%
Fatigue, Grade ≥ 3 ([2]; monotherapy): 2^# %
Infusion reactions, All Grades ([2]; monotherapy): 34%
Infusion reactions, Grade ≥ 3 ([2]; monotherapy): 5^# %
Nausea, All Grades ([2]; monotherapy): 11%
Nausea, Grade ≥ 3 ([2]; monotherapy): 0.4^# %
Pneumonia, All Grades ([2]; monotherapy): 10%
Pneumonia, Grade ≥ 3 ([2]; monotherapy): 6^@ %
Pyrexia, All Grades ([2]; monotherapy): 13%
Pyrexia, Grade ≥ 3 ([2]; monotherapy): 1^# %
Upper respiratory tract infection, All Grades ([2]; monotherapy): 22%
Upper respiratory tract infection, Grade ≥ 3 ([2]; monotherapy): 1^# %
Decreased hemoglobin, All Grades ([2]; worsening from baseline): 39%
Decreased hemoglobin, Grades 3-4 ([2]; worsening from baseline): 16%
Decreased leukocytes, All Grades ([2]; worsening from baseline): 57%
Decreased leukocytes, Grades 3-4 ([2]; worsening from baseline): 14%
Decreased lymphocytes, All Grades ([2]; worsening from baseline): 56%
Decreased lymphocytes, Grades 3-4 ([2]; worsening from baseline): 36%
Decreased neutrophils, All Grades ([2]; worsening from baseline): 43%
Decreased neutrophils, Grades 3-4 ([2]; worsening from baseline): 11%
Decreased platelets, All Grades ([2]; worsening from baseline): 45%
Decreased platelets, Grades 3-4 ([2]; worsening from baseline): 14%
CR or better, % [3]: 2.7%
Median progression-free survival [3]: 6.1 months
Partial response (PR), % [3]: 20%
Very good partial response (VGPR), % [3]: 14%
Overall response (sCR + CR + VGPR + PR), % ([3]; intent-to-treat population): 37%

Molecule: Daratumumab: IgG1κ human monoclonal antibody that binds CD38; heavy chain SEQ ID NO: 12, light chain SEQ ID NO: 13
effect of sex, age (33 to 92 years), renal impairment (CLcr 15 to 89 mL/min) and mild hepatic impairment on pharmacokinetics [4]: no clinically meaningful effect
estimated mean volume of distribution, peripheral compartment ([1]; multiple myeloma): 3.8 L
estimated mean (CV %) elimination half-life associated with linear clearance ([1]; multiple myeloma, CV 22%): 20 days
estimated mean (CV) volume of distribution for the central compartment ([1]; multiple myeloma, CV 37%): 5.2 L
estimated mean (CV %) linear clearance ([1]; multiple myeloma, CV 59%): 119 mL/day
estimated mean volume of distribution ([5]; CV 28%): 10.8 L
estimated mean (CV %) linear clearance ([5]; CV 42%): 210 mL/day
estimated mean (CV %) elimination half-life associated with linear clearance ([5]; CV 74%): 28 days
persistence of positive indirect antiglobulin test after the last administration [6]: up to 6 months
Indirect Antiglobulin Test (Indirect Coombs test) result ([6]; binding to CD38 on RBCs): positive

time until permeability of the subcutaneous tissue is restored [7]: 24 to 48 h
B1: hyaluronidase: recombinant human hyaluronidase rHuPH20, SEQ ID NO: 22, residues 36-482 of wild type human hyaluronidase (protein, listed as Homo sapiens)
chain: LNFRAPPVIPNVPFLWAWNAPSEFCLGKFDEPLDMSLFSFIGSPRINATGQGVTIFYVDRLGYYPYIDSITGVTVNGGIPQKISLQDHLDKAKKDITFYMPVDNLGMAVIDWEEWRPTWARNWKPKDVYKNRSIELVQQQNVQLSLTEATEKAKQEFEKAGKDFLVETIKLGKLLRPNHLWGYYLFPDCYNHHYKKPGYNGSCFNVEIKRNDDLSWLWNESTALYPSIYLNTQQSPVAATLYVRNRVREAIRVSKIPDAKSPLPVFAYTRIVFTDQVLKFLSQDELVYTFGETVALGASGIVIWGTLSIMRSMKSCLLLDNYMETILNPYIINVTLAAKMCSQVLCQEQGVCIRKNWNSSDYLHLNPDNFAIQLEKGGKFTVRGKPTLEDLEQFSEKFYCSCYSTLSCKEKADVKDTDAVDVCIADGVCIDAFLKPPMETEEPQIFY
systemic exposure of hyaluronidase ([8]; monkeys, 22,000 U/kg subcutaneously (12 times the human dose)): No systemic exposure of hyaluronidase was detected
effects on reproductive tissues and function [8, 10]: no effects
systemic exposure of hyaluronidase [8, 10]: no systemic exposure
effects on post-natal development through sexual maturity in offspring ([9]; mice treated daily during lactation, 990,000 U/kg subcutaneously): no effects
effects on pre- and post-natal development through sexual maturity in offspring ([9]; mice treated daily from implantation through lactation, 990,000 U/kg subcutaneously): no effects
effects on embryo-fetal development ([9]; pregnant mice, 330,000 U/kg subcutaneously daily during organogenesis): no effects
